Results from the supplement of paper PMC10126150.
± gives the standard deviation of the averaged measurements.

Test system: ATP
Experiment: switch fluorescence ratio, 500 uM ATP over buffer (Cy3 cluster intensity, sum of 5 cycles each) (fold (ratio)); higher = stronger signal-on switching upon ATP binding; sequences stand for … in TCGTCGGCAGCGTCAGATGTGTATAAGAGACAGTTTTTTTTTTTTTTTTTTTTTTTTT…TC
Details: aptamer strand: ATP DNA aptamer (quencher-CACCTGGGGGAGTATTGCGGAGGAAGG + anchor), 100 nM annealed; ATP concentration: 500 uM
Summary of the method: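 Cy3-labelled switching-strand clusters on a modified Illumina MiSeq flow-cell were annealed to 100 nM quencher-labelled ATP aptamer and imaged first in selection buffer, then after 15 min with 500 uM ATP at 22 °C. NaOH stripping and re-annealing separated each of five buffer/ATP cycles, and clusters outside 100-1000 RFU were excluded. The fluorescence ratio sums target-cycle Cy3 intensity over buffer-cycle Cy3 intensity per cluster and averages it per switch-domain sequence.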
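Note: ATP exposure 15 min at 22 °C before imaging.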

Row | Sequence | switch fluorescence ratio
1 | GGGAGAGTTT | 1.01 ± 0.026
2 | GGGAGCCGAG | 1 ± 0.03
3 | GGGAGGAGGC | 0.889 ± 0.04
4 | GGGAGGAGTT | 0.9689 ± 0.0067
5 | GGGAGGCAAT | 1.46 ± 0.38
6 | GGGAGGGATA | 0.995 ± 0.02
7 | GGGAGGGGAA | 1.1 ± 0.15
8 | GGGAGGTGGT | 1.08 ± 0.17
9 | GGGAGTAAAT | 1.01 ± 0.037
10 | GGGAGTAGCC | 1.01 ± 0.059
11 | GGGAGTATCT | 0.9998 ± 0.0028
12 | GGGAGTATGT | 0.977 ± 0.054
13 | GGGAGTGGGA | 1.01 ± 0.011
14 | GGGAGTGTGC | 1.016 ± 0.0053
15 | GGGAGTTCTA | 0.991 ± 0.023
16 | GGGATAAAGT | 0.988 ± 0.022
17 | GGGATAAATA | 0.9996 ± 0.0023
18 | GGGATAAGCT | 1.02 ± 0.022
19 | GGGATACAGC | 1.03 ± 0.059
20 | GGGATACGGT | 1.0248 ± 0.00074
21 | GGGATAGACT | 0.995 ± 0.035
22 | GGGATAGCAC | 1.09 ± 0.13
23 | GGGATAGGAG | 1 ± 0.03
24 | GGGATATAGG | 0.9937 ± 0.0021
25 | GGGATATGGT | 0.986 ± 0.019

Row | Sequence | switch fluorescence ratio
26 | GGGATATTGG | 0.992 ± 0.013
27 | GGGATCAGAA | 0.999 ± 0.074
28 | GGGATCAGCG | 0.988 ± 0.041
29 | GGGATCGGTG | 0.995 ± 0.016
30 | GGGATCTGCG | 0.95 ± 0.017
31 | GGGATGAGGG | 0.97 ± 0.037
32 | GGGATGGACC | 1 ± 0.018
33 | GGGATGTTTG | 0.987 ± 0.017
34 | GGGATTAGCG | 0.957 ± 0.037
35 | GGGATTAGGA | 0.995 ± 0.052
36 | GGGATTAGGG | 1.02 ± 0.043
37 | GGGATTATTC | 0.9725 ± 0.0041
38 | GGGATTGGAG | 0.995 ± 0.016
39 | GGGATTGGCT | 1.01 ± 0.015
40 | GGGATTGGGC | 0.992 ± 0.022
41 | GGGATTGGGG | 1 ± 0.012
42 | GGGATTGGTT | 0.999 ± 0.047
43 | GGGATTGTAA | 0.982 ± 0.021
44 | GGGATTTCTG | 1.03 ± 0.04
45 | GGGATTTGCA | 0.9758 ± 0.0075
46 | GGGATTTTAA | 0.9753 ± 0.0091
47 | GGGCAAATTC | 1.08 ± 0.02
48 | GGGCAAATTG | 0.968 ± 0.028
49 | GGGCAACTGG | 1.11 ± 0.15
50 | GGGCAAGTTA | 1.009 ± 0.007

Row | Sequence | switch fluorescence ratio
51 | GGGCAATGTC | 1.39 ± 0.072
52 | GGGCACTTTG | 1.0204 ± 0.00091
53 | GGGCAGACCA | 1.01 ± 0.011
54 | GGGCAGCCCG | 0.98 ± 0.014
55 | GGGCAGGATG | 1.05 ± 0.039
56 | GGGCAGGGGC | 1 ± 0.025
57 | GGGCAGGGGT | 1.45 ± 0.84
58 | GGGCAGGGTA | 0.9883 ± 0.0076
59 | GGGCAGGGTT | 0.999 ± 0.03
60 | GGGCATAACT | 1.04 ± 0.044
61 | GGGCATAATG | 1.02 ± 0.041
62 | GGGCATAGTT | 0.97 ± 0.018
63 | GGGCATCATG | 1.04 ± 0.011
64 | GGGCATCTAG | 0.9863 ± 0.0013
65 | GGGCATGAAA | 1.02 ± 0.021
66 | GGGCATGTCG | 1.13 ± 0.013
67 | GGGCATTGGG | 0.996 ± 0.043
68 | GGGCCAAGGG | 1.01 ± 0.022
69 | GGGCCACCGA | 0.975 ± 0.0041
70 | GGGCCACGTA | 0.971 ± 0.082
71 | GGGCCAGCTT | 0.988 ± 0.016
72 | GGGCCAGGGG | 1.21 ± 0.067
73 | GGGCCAGGGT | 1.02 ± 0.0054
74 | GGGCCATGGA | 1.05 ± 0.099
75 | GGGCCCGATT | 0.976 ± 0.037

Row | Sequence | switch fluorescence ratio
76 | GGGCCCGGCG | 0.973 ± 0.049
77 | GGGCCCTGTT | 1.03 ± 0.021
78 | GGGCCGGGAC | 0.961 ± 0.01
79 | GGGCCTAGGA | 1.028 ± 0.0069
80 | GGGCCTGCGC | 1 ± 0.015
81 | GGGCCTGCTT | 0.97 ± 0.052
82 | GGGCCTGGGT | 1 ± 0.017
83 | GGGCCTGGTC | 1.02 ± 0.032
84 | GGGCCTTTAG | 1.02 ± 0.033
85 | GGGCGAAAAA | 0.987 ± 0.054
86 | GGGCGAATGG | 1.02 ± 0.029
87 | GGGCGCACGG | 0.992 ± 0.039
88 | GGGCGCCAGG | 1.33 ± 0.66
89 | GGGCGCGGGG | 1.01 ± 0.023
90 | GGGCGGAGGG | 0.998 ± 0.027
91 | GGGCGGCCGT | 1.02 ± 0.044
92 | GGGCGGGGAT | 1.01 ± 0.018
93 | GGGCGGGGCT | 0.994 ± 0.016
94 | GGGCGGGGGC | 1.02 ± 0.056
95 | GGGCGTAACT | 0.991 ± 0.041
96 | GGGCGTGGTG | 1.03 ± 0.011
97 | GGGCGTGTTG | 1.027 ± 0.01
98 | GGGCTAGTCG | 1.01 ± 0.034
99 | GGGCTATTTG | 0.978 ± 0.013
100 | GGGCTATTTT | 0.991 ± 0.031

Row | Sequence | switch fluorescence ratio
101 | GGGCTCAACT | 0.9946 ± 0.0053
102 | GGGCTCTATC | 0.9913 ± 0.0025
103 | GGGCTCTGAC | 1.049 ± 0.0084
104 | GGGCTCTTGC | 0.98 ± 0.068
105 | GGGCTGATCT | 1.04 ± 0.045
106 | GGGCTGCATT | 1.01 ± 0.011
107 | GGGCTGGAAT | 1 ± 0.02
108 | GGGCTTGCAG | 0.9812 ± 0.0089
109 | GGGCTTGGGT | 1.08 ± 0.12
110 | GGGCTTGGTA | 1 ± 0.014
111 | GGGCTTGTGC | 0.987 ± 0.071
112 | GGGCTTTAAA | 1.01 ± 0.012
113 | GGGGAAACCT | 2.21 ± 0.77
114 | GGGGAAAGCA | 1 ± 0.015
115 | GGGGAAAGGG | 1 ± 0.034
116 | GGGGAAAGGT | 0.989 ± 0.029
117 | GGGGAACAGG | 1.05 ± 0.06
118 | GGGGAACCAT | 1.01 ± 0.039
119 | GGGGAACGGG | 1 ± 0.027
120 | GGGGAAGACG | 1.01 ± 0.082
121 | GGGGAAGCGA | 1.09 ± 0.038
122 | GGGGAAGCTT | 1.04 ± 0.055
123 | GGGGAAGTCT | 0.984 ± 0.093
124 | GGGGAAGTGG | 1 ± 0.026
125 | GGGGAATACG | 1.11 ± 0.048

Row | Sequence | switch fluorescence ratio
126 | GGGGAATAGG | 0.9962 ± 0.0084
127 | GGGGAATCTA | 0.997 ± 0.022
128 | GGGGAATGAT | 0.98 ± 0.021
129 | GGGGACGAGT | 0.99779 ± 0.00098
130 | GGGGACGGCA | 1.01 ± 0.046
131 | GGGGACGGTG | 1.03 ± 0.048
132 | GGGGACTGAG | 0.983 ± 0.029
133 | GGGGACTTTC | 1.03 ± 0.017
134 | GGGGAGAAAG | 0.9964 ± 0.0029
135 | GGGGAGAGCG | 1.01 ± 0.034
136 | GGGGAGAGGA | 0.987 ± 0.037
137 | GGGGAGAGGG | 0.984 ± 0.029
138 | GGGGAGCGCG | 0.981 ± 0.035
139 | GGGGAGCGGG | 0.99834 ± 0.00014
140 | GGGGAGCGTC | 1.01 ± 0.032
141 | GGGGAGGCCA | 0.963 ± 0.031
142 | GGGGAGGCTG | 0.971 ± 0.039
143 | GGGGAGGGGT | 1.01 ± 0.054
144 | GGGGAGTGCG | 0.969 ± 0.01
145 | GGGGAGTGG | 1.01 ± 0.025
146 | GGGGATAACG | 0.981 ± 0.012
147 | GGGGATAATT | 1.05 ± 0.025
148 | GGGGATATGG | 1.01 ± 0.039
149 | GGGGATGAAG | 0.994 ± 0.014
150 | GGGGATGGGG | 1.02 ± 0.044

Row | Sequence | switch fluorescence ratio
151 | GGGGATTTGC | 0.969 ± 0.023
152 | GGGGCACGGG | 1.02 ± 0.034
153 | GGGGCAGCGT | 0.999 ± 0.043
154 | GGGGCAGGAG | 1.01 ± 0.06
155 | GGGGCAGGTT | 0.977 ± 0.038
156 | GGGGCATTGG | 0.99 ± 0.011
157 | GGGGCCATGG | 0.9123 ± 0.006
158 | GGGGCCCACG | 1.002 ± 0.006
159 | GGGGCCCCGT | 1.016 ± 0.0043
160 | GGGGCCCGGC | 0.904 ± 0.013
161 | GGGGCCGTAA | 0.992 ± 0.025
162 | GGGGCCTTTA | 0.9592 ± 0.0049
163 | GGGGCGAAGG | 0.999 ± 0.038
164 | GGGGCGACGT | 0.977 ± 0.023
165 | GGGGCGAGG | 0.994 ± 0.053
166 | GGGGCGGGGC | 1.01 ± 0.014
167 | GGGGCGTATC | 1.01 ± 0.04
168 | GGGGCGTGCG | 1.01 ± 0.02
169 | GGGGCGTTGG | 0.993 ± 0.033
170 | GGGGCGTTTG | 0.961 ± 0.057
171 | GGGGCTACTT | 1.02 ± 0.013
172 | GGGGCTATCA | 0.9712 ± 0.0081
173 | GGGGCTATCT | 1.33 ± 0.42
174 | GGGGCTATGG | 1.02 ± 0.045
175 | GGGGCTCATG | 0.99 ± 0.014

Row | Sequence | switch fluorescence ratio
176 | GGGGCTCTCG | 0.99 ± 0.012
177 | GGGGCTTAAA | 1.04 ± 0.047
178 | GGGGCTTAGC | 1.02 ± 0.046
179 | GGGGCTTGGT | 1.01 ± 0.034
180 | GGGGGAAGAA | 1 ± 0.028
181 | GGGGGAAGCC | 0.98 ± 0.024
182 | GGGGGAATAC | 2.26 ± 0.5
183 | GGGGGACCGT | 1.01 ± 0.024
184 | GGGGGACGAC | 0.969 ± 0.035
185 | GGGGGACTCT | 0.986 ± 0.041
186 | GGGGGACTGA | 0.991 ± 0.03
187 | GGGGGACTGC | 1.01 ± 0.048
188 | GGGGGAGACG | 1.03 ± 0.075
189 | GGGGGAGATG | 0.992 ± 0.028
190 | GGGGGAGCGG | 0.992 ± 0.033
191 | GGGGGAGGTG | 1.03 ± 0.048
192 | GGGGGAGTCT | 1.11 ± 0.087
193 | GGGGGAGTGC | 1.06 ± 0.12
194 | GGGGGAGTTT | 1.01 ± 0.011
195 | GGGGGATCCG | 0.983 ± 0.019
196 | GGGGGATGTG | 1.012 ± 0.004
197 | GGGGGATTGC | 1.02 ± 0.066
198 | GGGGGCACGT | 1.017 ± 0.0074
199 | GGGGGCAGAT | 0.97 ± 0.018
200 | GGGGGCAGGG | 0.998 ± 0.065
